In the assay the target is T1, human thrombopoietin receptor, c-Mpl (human, UniProt P40238 26-491).
T1 construct: extracellular domain; Antigen of the library panning; also called MPL (human thrombopoietin receptor tyrosine kinase ECD)
T1 sequence (looked up): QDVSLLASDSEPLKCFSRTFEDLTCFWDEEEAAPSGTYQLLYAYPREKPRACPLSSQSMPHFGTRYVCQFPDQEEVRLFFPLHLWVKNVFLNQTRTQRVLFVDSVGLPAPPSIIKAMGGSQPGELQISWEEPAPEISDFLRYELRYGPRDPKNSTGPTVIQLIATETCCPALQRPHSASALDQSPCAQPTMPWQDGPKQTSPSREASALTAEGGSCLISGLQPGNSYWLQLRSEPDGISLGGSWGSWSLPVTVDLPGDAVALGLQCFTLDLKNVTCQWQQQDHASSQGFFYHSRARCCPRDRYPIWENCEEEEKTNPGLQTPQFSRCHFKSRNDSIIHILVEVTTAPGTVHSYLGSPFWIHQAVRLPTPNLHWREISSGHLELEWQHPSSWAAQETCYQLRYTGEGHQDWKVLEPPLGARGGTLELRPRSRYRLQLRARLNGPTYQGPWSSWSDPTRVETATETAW
Description: scFv from panning of a human scFv phage library.

B1: anti-Mpl scFv, 12B5 (scFv)
scFv: QVQLVQSGGGLVRPGGSLSLSCAVSGITLRTYGMHWVRQAPGKGLEWVAGISFDGRSEYYADSVQGRFTISRDSSKNTLYLQMNSLRAEDTAVYYCARGAHYGFDIWGQGTMVTVSSGGGGTGGGGSGGGGSDIQMTQSPSTLSASIGDRVTITCRASEGIYHWLAWYQQKPGKAPKLLIYKASSLASGAPSRFSGSGSGTDFTLTISSLQPDDFATYYCQQYSNYPLTFGGGTKLEIK
On to B1, for which the binding result is recorded as “binds”.

The record behind these values is patent US7951917 (Genentech, dated 2011).
